What all share (settings): remark: other sources report otherwise
The target of test [1] is T1, hCMV gH + gL + UL128 + UL130 + UL131A (co-expressed in HEK293T cells) (human cytomegalovirus), P12824. The test is described as follows: competitor: 2F4-biotin; cell staining.
In test [2] the target is T1, hCMV gH + gL + UL128 + UL130 + UL131A …. In words: competitor: 6G4-biotin; cell staining.
For test [3] the target is unchanged. The test is described as follows: competitor: 9I6-biotin; cell staining.
Test [4] has the same target. In words: competitor: 1F11-biotin; cell staining.
For test [5] the target is unchanged. In words: competitor: 4I22-biotin; cell staining.
Test [6] has the same target. The test is described as follows: competitor: 2C12-biotin; cell staining.
The target is the same in test [7]. In words: competitor: 8C15-biotin; cell staining.
Test [8] shares this target. The test is described as follows: competitor: 8I21-biotin; cell staining.
For test [9] the target is unchanged. The test is described as follows: competitor: 8J16-biotin; cell staining.
For test [10] the target is unchanged. The test is described as follows: competitor: 5A2-biotin; cell staining.
The target is the same in test [11]. In words: competitor: 10F7-biotin; cell staining.
For test [12] the target is unchanged. In words: competitor: 15D8-biotin; cell staining.
Test [13] shares this target. In words: competitor: 4N10-biotin; cell staining.

B1: 9I6 (antibody, V domains shown)
VH: EVQLVQSGAEVKKPGESLKISCRESGDTFPAYWIAWVRQMPGKGLEWMGIIYPIDSETTYSPSFQGQVTISADKSINTAYLQWSSLKASDSAIYYCARGTSTGLREAFHIWGQGTMVTVSS
VL: DVVMTQSPLSLAVTLGQPAYISCRSSQSLGYSDGNTYLNWFQQRPGQSPRRLIYEVSNRDSGVPDRFSGSGSGTDFTLKISRVEAEDVGTYYCMQGTHWPPMCSFGQGTKLEIK
Consider B1, for which the Inhibition of binding (%) was determined as 0% in test [1]; 100% in test [2]; 100% in test [3]; 0% in [4]; 0% in test [5]; 100% in test [6]. The results for the Inhibition of binding (%) in test [7], in test [8] and in test [9] were 100%, 0% and 100%, respectively.

B2: 8C15 (antibody, V domains shown)
VH: QVQLQESGPGLVKPSETLSLTCTVSGGSIRSYYWSWIRQPPGKGLEWIGHIYYSGNTNYSPSLQSRVTISLDTPKNQFSLRLSSVTAADTAVYYCARHDVIVVRGVFDVWGQGTVVTVSS
VL: QSALTQPASVSGSPGQSITISCTGTSSDIGTYNLVSWYQQHPGKAPKVLIYDGSKRPSGVSSRFSASKSGNTASLTISGLQAEDETDYYCCSYAGTSDFFVVFGGGTKLTVL
With B2, the Inhibition of binding (%) amounted to 100% in test [2]; 100% in test [3]; 0% in test [5]; 100% in test [6]; 100% in test [7]; 0% in test [8]. The Inhibition of binding (%) in test [9] was 100%.

B3: 2C12 (antibody, V domains shown)
VH: QITLRESGPTLVKPTQTLTLTCTFSGFSLNTNGVGVGWIRQPPGKALEWLALIYWNGNEGYSPSLKSRLTITKDTSKNQVVLTMTNMDPVDTATYYCVHWPQGLTTVTRLAFDIWGQGTMVTVSS
VL: QSALTQPRSVSGSPGQSVTISCTGTTSDVGRYNFVSWYQQHPGKAPKLLMYDVSQRPSGVPSRFSGSKSGNTASLTISGLQAEDEAVFYCCSYAGGNFFSYVFGTGTKVTVL
B3: the Inhibition of binding (%) in test [1] amounted to 0%; in test [10], 0%; in test [2] it was 100%; in test [3], 100%; in test [11], 0%; in test [12], 0%. The Inhibition of binding (%) is 0% in [4]; 0% in test [5]; 0% in [13]; 100% in test [6]; 100% in test [7]; 0% in [8]. In addition, in [9], the Inhibition of binding (%) was 100%.

B4: 8J16 (antibody, V domains shown)
VH: QVQLQESGPGLVKPSETLSLTCSVSGGFTSSYYWSWIRQAPGKGLEWIGYVYYGESTDYNPSLKSRATISIDTSKNQFSLKLSSVTAADTAVYYCAREVDKRGFDYWGQGALVTVSS
VL: EIVLTQSPGTLSLSPGERATLSCRASQSVSGGYLAWYQQEPGQAPRLVIYGASSRATGIPDRFSASGSGTDFTLTITRLEPEDFAVYYCQQYGRTPLTFGGGTKVEIK
As to B4, the Inhibition of binding (%) in [1] worked out at 0%; in test [2], 100%; in test [3], 70%; in [4], 0%; in [5], 0%; in test [6], 100%. The Inhibition of binding (%) came out at 100% in [7], 0% in [8] and 100% in test [9].

Values taken from patent US20170129940A1.
